Test [1] addresses T1, human IL-23R (human, UniProt Q5VWK5 24-353, limits assumed).
T1 construct: also called huIL-23R; human interleukin-23R
T1 sequence: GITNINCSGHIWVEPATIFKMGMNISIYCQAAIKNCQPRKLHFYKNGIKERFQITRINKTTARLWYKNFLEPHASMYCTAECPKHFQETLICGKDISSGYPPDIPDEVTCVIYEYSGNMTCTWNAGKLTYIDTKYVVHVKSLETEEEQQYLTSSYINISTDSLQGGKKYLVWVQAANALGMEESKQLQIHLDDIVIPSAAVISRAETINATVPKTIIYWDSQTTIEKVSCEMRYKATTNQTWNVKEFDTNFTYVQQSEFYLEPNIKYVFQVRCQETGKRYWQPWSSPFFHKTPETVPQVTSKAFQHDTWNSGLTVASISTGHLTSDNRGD
The test can be described thus: KinExA. As to the method: (§1) The equilibrium dissociation constants (Kd) for anti human IL-23R antibodies are determined using the KinExA. 3000 instrument. Sapidyne Instruments Inc., Boise Id., USA. KinExA uses the principle of the Kinetic Exclusion Assay method based on measuring the concentration of uncomplexed antibody in a mixture of antibody, antigen and antibody-antigen complex. The concentration of free antibody is measured by exposing the mixture to a solid-phase immobilized antigen for a very brief period of time. In practice, this is accomplished by flowing the solution phase antigen-antibody mixture past antigen-coated particles trapped in a flow cell. Data generated by the instrument are analyzed using custom software. Equilibrium constants are calculated using a mathematical theory based on the lowing assumptions: [0177] 1. The binding follows the reversible binding equation for equilibrium: […]
PMMA particles (Sapidyne, Cat No. 440198) are coated with biotinylated IL-23R (or a fragment thereof, such as the extracellular domain) according to Sapidyne “Protocol for coating PMMA particles with biotinylated ligands having short or nonexistent linker arms.” EZ-link TFP PEO-biotin (Pierce, Cat. No. 21219) is used to make biotinylated IL-23R, as per the manufacturer's recommendations (Pierce bulletin 0874).

Test [2] has as its target T1, human IL-23R. Briefly: BIAcore SPR, antibody immobilised. Here is the method: (§2) BIAcore® label-free interaction analysis system determinations are performed essentially as described at Example 4 of U.S. Patent Application Publication No. 2007/0048315, which is hereby incorporated by reference. Briefly, ligands (anti-IL-23R mAbs) are immobilized on a BIAcore® label-free interaction analysis system CM5 sensor chip using standard amine-coupling procedure. Kinetic constants for the various interactions are determined using BIAevaluation software 3.1. The Kd is determined using the calculated dissociation and association rate constants.
Background: In SPR one partner is held on a chip, and binding of the other changes the refractive index at the surface.

In test [3] the target is T1, human IL-23R. Briefly: BIAcore SPR, antibody immobilised. Here is the method:
as §2
Several sequence variants intended to increase the chemical stability of hu8B10-b were produced to evaluate their effects on binding affinity. Kd values are provided at Table 3. Binding to human IL-23R was determined using the BIAcore® label-free interaction analysis system (surface plasmon resonance), essentially as described in Example 4 (supra). Chimeric forms, designated as “chim,” refers to rat variable domains linked to human IgG1 heavy chain and human kappa light chain constant domains, e.g., as presented at SEQ ID NOs: 16 and 17, respectively, or as at SEQ ID NOs: 22 and 23, respectively. Sequences for heavy and light chain variable domains are provided at FIGS. 1 and 2, and in the Sequence Listing (as described at Table 4). Antibodies incorporate the sequence changes recited in the table (“Variant(s)”) for the respective heavy and light chains. Data arc presented as mean±standard deviation for multiple determinations, and without error estimates for single determinations.
This is another data set of the same source.

The target of test [4] is T2, biotinylated huIL-23R-IgG (human, UniProt Q5VWK5 24-353, biotinylated).
T2 construct: not shown: human IgG1 Fc
T2 sequence: T1 sequence
The test can be described thus: ECL binding assay, Binding (% of w.t.). The text has this:
The N31T change was introduced as a result of affinity maturation experiments, as follows. An E. coli expression vector for expression into the periplasmic space was constructed encoding a chimeric Fab fragment of rat antibody 8B10 comprising rat variable domains, a human constant light chain domain (CL) and a human constant heavy chain domain CH1. Mutations were introduced using a QuikChange® site directed mutagenesis kit (Stratagene Inc., LaJolla, Calif., USA). Primers were designed to replace selected positions with either alanine, or by all 20 amino acids, using the NNK codon approach (N includes an equimolar mix of A/G/C/T and K includes only G/T). To reduce background, alanine mutants at each position were used as the template for the randomization step. Unpurified periplasmic extracts were then tested for human IL-23R binding activity using an electrochemiluminescence assay with biotinylated huIL-23R-IgG and goat anti-huFab-Ori-Tag for detection. The area under the curve was used to compare the binding activity of sequence variants to the original parental 8B10 Fab. Data were fitted using GraphPad Prism® 3.0 software (Graphpad Software inc., San Diego, Calif. USA).

Test [5] addresses T1, human IL-23R. Briefly: KinExA, full-length chimeric antibody; original sequence (no N31T). As to the method: as §1
(§3) PMMA particles (Sapidyne, Cat No. 440198) are coated with biotinylated IL-23R (or a fragment thereof, such as the extracellular domain) according to Sapidyne “Protocol for coating PMMA particles with biotinylated ligands having short or nonexistent linker arms.” EZ-link TFP PEO-biotin (Pierce, Cat. No. 21219) is used to make biotinylated IL-23R, as per the manufacturer's recommendations (Pierce bulletin 0874). […]
Background: In KinExA the mixture passes briefly over coated beads that capture the unbound partner.

In test [6] the target is T1, human IL-23R. Briefly: KinExA, full-length chimeric antibody. Here is the method:
as §1, §3

Test [7] deals with T1, human IL-23R. The test can be described thus: KinExA, full-length chimeric antibody; N31T variant, full-length chimeric. Here is the method: as §1, §3

Results on 17 molecules are retold here after patent US20110158992A1 (SCHERING, published 2011).

Usually Kd stands for a measure of binding affinity in units of concentration. Low values mean a tighter complex, high ones a looser complex.

Positions count from the first letter of the chain named. Names and notes keep the numbering of the source.

B1: rat anti-human IL-23R antibody 8B10 (antibody, rat IgG2a, V domains shown)
VH: EVKLVESGGGLEQPKGSLKLSCTVSGFDFNSYGMSWVRQAPGKGLDLVADINSKSYNYATYYADSVKDRFTISRDDSQSMVYLEMDNLKTEDTALYYCTVHHSDYFEYWGQGVMVTVSS
VL: DIQMTQSPASLSASLGETVSIECLASEDIYNNLAWYQQKPGKSPQLLIYHASSLQDGVPSRFSGSGSGTQYSLKINSLESEDAATYFCLQDSEYPPTFGGGTKLELKR
notes: also called r8B10
Take B1: the figures for the Kd with human IL-23R [1], with human IL-23R [2] and in the test with human IL-23R [3] were 0.042 nM, roughly 0.3 nM and 0.27 nM, respectively.

B2: chimeric 8B10 Fab, VL N31del (Fab, V domains shown)
VH: B1 VH
VL: DIQMTQSPASLSASLGETVSIECLASEDIYNLAWYQQKPGKSPQLLIYHASSLQDGVPSRFSGSGSGTQYSLKINSLESEDAATYFCLQDSEYPPTFGGGTKLELK
notes: Rat V domains with human CH1 and CL; E. coli periplasmic extract
With B2, the binding result in test [4] was “no binding”.

B3: chimeric 8B10 full-length antibody (antibody, V domains shown)
VH: B1 VH
VL: B1 VL
notes: also called chim8B10
Take B3: the values for the Kd in the test with human IL-23R [3] and with human IL-23R [5] were 0.345 nM and 0.025 nM, respectively.

B4: full-length chimeric 8B10 antibody, VL N31T (antibody, V domains shown)
VH: B1 VH
VL: B1 VL with N31T
notes: also called N31T variant
Turning to B4, the “fold improvement in binding affinity against the original sequence” value with human IL-23R [6] was 3 fold. This molecule yielded a Kd in the test with human IL-23R [7] of 0.008 nM.

B5: chimeric 8B10 Fab, VL Y94A (Fab, V domains shown)
VH: B1 VH
VL: B1 VL with Y94A
notes: as for B2
For the molecule B5, in test [4], the binding result was “no binding”.

B6: antibody with hu8B10 VH and hu8B10 VL N31T (antibody, V domains shown)
VH: QVQLVESGGGVVQPGRSLRLSCAASGFDFNSYGMSWVRQAPGKGLEWVADINSKSYNYATYYADSVKDRFTISRDNSKNTLYLQMNSLRAEDTAVYYCARHHSDYFEYWGQGTLVTVSS
VL: DIQMTQSPSSLSASVGDRVTITCLASEDIYTNLAWYQQKPGKAPKLLIYHASSLQDGVPSRFSGSGSGTDFTLTISSLQPEDFATYYCLQDSEYPPTFGQGTKVEIKR
notes: also called VH: hu8B10 / VL: hu8B10 N31T
Turning to B6, in the test with human IL-23R [3], the binding result is recorded as “no binding”.

B7: hu8B10-b variant, VH N30S (antibody, V domains shown)
VH: B6 VH with N30S, E46D, W47L, R100V
VL: B6 VL with L24R, E27Q, F71Y
notes: also called VH: 8B10-b N30S / VL: 8B10-b
Turning to B7, in the test with human IL-23R [3], binding was characterised by a dissociation constant (Kd) of 0.168 nM.

B8: hu8B10-b variant, VH N52S (antibody, V domains shown)
VH: B6 VH with E46D, W47L, N52S, R100V
VL: B6 VL with L24R, E27Q, F71Y
notes: also called VH: 8B10-b N52S / VL: 8B10-b
As to B8, binding with human IL-23R [3] was characterised by a dissociation constant (Kd) of 0.444 nM.

B9: hu8B10-b variant, VL N32S (antibody, V domains shown)
VH: B6 VH with E46D, W47L, R100V
VL: B6 VL with L24R, E27Q, N32S, F71Y
notes: also called VH: 8B10-b / VL: 8B10-b N32S
Regarding B9, the Kd with human IL-23R [3] was determined as 19.2 nM.

B10: hu8B10-b variant, VL D56E (antibody, V domains shown)
VH: B6 VH with E46D, W47L, R100V
VL: B6 VL with L24R, E27Q, D56E, F71Y
notes: also called VH: 8B10-b / VL: 8B10-b D56E
As to B10, the affinity with human IL-23R [3], expressed as Kd, was 0.179 nM.

B11: antibody with hu8B10-b VH and hu8B10 VL N31T (antibody, V domains shown)
VH: B6 VH with E46D, W47L, R100V
VL: B6 VL
notes: also called VH: hu8B10-b / VL: hu8B10 N31T
Molecule B11 yielded a Kd with human IL-23R [3] of 5.38 nM.

B12: humanized anti-human IL-23R antibody hu8B10-c (antibody, V domains shown)
VH: B6 VH with N30S, E46D, W47L, R100V
VL: B6 VL with L24R, E27Q, D56S, F71Y
notes: 8B10-b with VL D56S and VH N30S
B12 gave a Kd in the test with human IL-23R [3] of 0.18 nM.

B13: hu8B10-b variant, VH N30D (antibody, V domains shown)
VH: B6 VH with N30D, E46D, W47L, R100V
VL: B6 VL with L24R, E27Q, F71Y
notes: also called VH: 8B10-b N30D / VL: 8B10-b
In the test with human IL-23R [3], B13 displayed a Kd of 0.114 nM.

B14: hu8B10-b variant, VH N57D (antibody, V domains shown)
VH: B6 VH with E46D, W47L, N57D, R100V
VL: B6 VL with L24R, E27Q, F71Y
notes: also called VH: 8B10-b N57D / VL: 8B10-b
Take B14: the Kd in the test with human IL-23R [3] is 0.22 nM.

B15: hu8B10-b variant, VL D56S (antibody, V domains shown)
VH: B6 VH with E46D, W47L, R100V
VL: B6 VL with L24R, E27Q, D56S, F71Y
notes: also called VH: 8B10-b / VL: 8B10-b D56S
Molecule B15 showed a Kd with human IL-23R [3] of 0.187 nM.

B16: hu8B10-b variant, VH N57S (antibody, V domains shown)
VH: B6 VH with E46D, W47L, N57S, R100V
VL: B6 VL with L24R, E27Q, F71Y
notes: also called VH: 8B10-b N57S / VL: 8B10-b
Turning to B16, the Kd with human IL-23R [3] was 0.382 nM.

B17: hu8B10-b variant, VH N52D (antibody, V domains shown)
VH: B6 VH with E46D, W47L, N52D, R100V
VL: B6 VL with L24R, E27Q, F71Y
notes: also called VH: 8B10-b N52D / VL: 8B10-b
Regarding B17, the binding result with human IL-23R [3] is reported as “no binding”.
